# From patent US20210115124A1 (Genentech, published 2021)
# T1: human VEGF (hVEGF) (human, UniProt P15692 181-395)
# T1 construct: also called VEGF-A
# T1 sequence: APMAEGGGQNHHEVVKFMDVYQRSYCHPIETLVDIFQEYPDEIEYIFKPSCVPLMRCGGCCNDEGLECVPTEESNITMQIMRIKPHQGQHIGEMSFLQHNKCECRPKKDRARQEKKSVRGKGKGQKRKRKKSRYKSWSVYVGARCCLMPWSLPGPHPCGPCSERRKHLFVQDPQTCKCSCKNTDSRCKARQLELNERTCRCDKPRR
# Key:
# human VEGF (hVEGF) [1] = target: T1, human VEGF (hVEGF); assay: SPR
# Excerpt: (§1) To determine the binding affinity of selected Fab variants, SPR measurement with a BIACORE® T200 instrument was used. Briefly, series S sensor chip CM5 was activated with 1-ethyl-3-(3-dimethylaminopropyl) carbodiimide (EDC) and N-hydroxysuccinimide (NHS) reagents according to the supplier's instructions, and human VEGF (hVEGF) was coupled to achieve 50-80 response units (RU), then following by blocking un-reacted groups with 1M ethanolamine.
# (§2) Three-fold serial dilutions of Fab in HBS-P buffer (0.01 M HEPES pH 7.4, 0.15 M NaCl, 0.005% surfactant P20) from low (0.02 nM) to high (50 nM) were injected (flow rate: 30 μl/min). The binding responses on hVEGF were corrected by subtracting of RU from a blank flow cell. The sensorgram was recorded and subject to reference and buffer subtraction before evaluating by BIACORE® T200 Evaluation Software (version 2.0). Association rates (kₒₙ) and dissociation rates (koff) were calculated using a simple one-to-one Langmuir binding model. The equilibrium dissociation constant (Kd) was calculated as the ratio koff/kₒₙ.
# human VEGF (hVEGF) [2] = target: T1, human VEGF (hVEGF); assay: SPR; remark: listed apart in the source
# human VEGF (hVEGF) [3] = target: T1, human VEGF (hVEGF); assay: SPR; remark: listed apart in the source
# human VEGF (hVEGF) [4] = target: T1, human VEGF (hVEGF); assay: SPR multiple-cycle
# Excerpt: as §1, §2
# human VEGF (hVEGF) [5] = target: T1, human VEGF (hVEGF); assay: SPR single-cycle
# Excerpt: as §1, §2
# human VEGF (hVEGF) [6] = target: T1, human VEGF (hVEGF); assay: SPR; remark: listed apart in the source
# Excerpt: as §1, §2
Binder,Kd (human VEGF (hVEGF) [2]) [nM],koff (human VEGF (hVEGF) [2]) [s⁻¹],kon (human VEGF (hVEGF) [2]) [M⁻¹ s⁻¹],Kd (human VEGF (hVEGF) [3]) [nM],koff (human VEGF (hVEGF) [3]) [s⁻¹],kon (human VEGF (hVEGF) [3]) [M⁻¹ s⁻¹],other results
"G6.31 HC-A40E, HC-T57E (Fab, V domains shown, Fab) VH: EVQLVESGGGLVQPGGSLRLSCAASGFTISDYWIHWVRQEPGKGLEWVAGITPAGGYEYYADSVKGRFTISADTSKNTAYLQMNSLRAEDTAVYYCARFVFFLPYAMDYWGQGTLVTVSS VL: DIQMTQSPSSLSASVGDRVTITCRASQDVSTAVAWYQQKPGKAPKLLIYSASFLYSGVPSRFSGSGSGTDFTLTISSLQPEDFATYYCQQGYGNPFTFGQGTKVEIK",,,,,,,Kd (human VEGF (hVEGF) [1]): 0.272 nM; koff (human VEGF (hVEGF) [1]): 0.000804 s⁻¹; kon (human VEGF (hVEGF) [1]): 2.96e+06 M⁻¹ s⁻¹
"R19HCLC2 (Fab, V domains shown, Fab) VH: EEQLVEEGGGLVQPGESLRLSCAASGFEISDYWIHWVRQEPGEGLEWVAGITPAGGYEYYADSVEGRFTISADTSENTAYLQMNELRAEDTAVYYCARFVFFLPYAMDYWGQGELVTVSS VL: DIQMTQSPSSLSASVGDEVTITCRASQDVSTAVAWYQQKPGEAPKLLIYSASFLYSGVPSRFSGSGSGTDFTLTIESLQPEDAATYYCQQGYGAPFTFGQGTKVEIK",,4.67e-05,889000,,4.67e-05,889000,
"G6.31 HC-A40E, HC-T57E, LC-F83A, LC-N94A, LC-T22D (Fab, name in Kabat numbering, V domains shown, Fab) VH: EVQLVESGGGLVQPGGSLRLSCAASGFTISDYWIHWVRQEPGKGLEWVAGITPAGGYEYYADSVKGRFTISADTSKNTAYLQMNSLRAEDTAVYYCARFVFFLPYAMDYWGQGTLVTVSS VL: DIQMTQSPSSLSASVGDRVTIDCRASQDVSTAVAWYQQKPGKAPKLLIYSASFLYSGVPSRFSGSGSGTDFTLTISSLQPEDAATYYCQQGYGAPFTFGQGTKVEIK",,,,,,,Kd (human VEGF (hVEGF) [1]): 0.597 nM; koff (human VEGF (hVEGF) [1]): 0.000718 s⁻¹; kon (human VEGF (hVEGF) [1]): 1.2e+06 M⁻¹ s⁻¹
"G6.31 LC-N94Q (Fab, V domains shown, Fab) VH: EVQLVESGGGLVQPGGSLRLSCAASGFTISDYWIHWVRQAPGKGLEWVAGITPAGGYTYYADSVKGRFTISADTSKNTAYLQMNSLRAEDTAVYYCARFVFFLPYAMDYWGQGTLVTVSS VL: DIQMTQSPSSLSASVGDRVTITCRASQDVSTAVAWYQQKPGKAPKLLIYSASFLYSGVPSRFSGSGSGTDFTLTISSLQPEDFATYYCQQGYGQPFTFGQGTKVEIK",,,,,,,Kd (human VEGF (hVEGF) [4]): 1.14 nM; koff (human VEGF (hVEGF) [4]): 0.000362 s⁻¹; kon (human VEGF (hVEGF) [4]): 318000 M⁻¹ s⁻¹; Fold difference (relative to G6.31) (human VEGF (hVEGF) [5]): 0.3 fold; Kd (human VEGF (hVEGF) [5]): 4.78 nM; koff (human VEGF (hVEGF) [5]): 0.00133 s⁻¹; kon (human VEGF (hVEGF) [5]): 278000 M⁻¹ s⁻¹
"G6.31 LC-N94R (Fab, V domains shown, Fab) VH: EVQLVESGGGLVQPGGSLRLSCAASGFTISDYWIHWVRQAPGKGLEWVAGITPAGGYTYYADSVKGRFTISADTSKNTAYLQMNSLRAEDTAVYYCARFVFFLPYAMDYWGQGTLVTVSS VL: DIQMTQSPSSLSASVGDRVTITCRASQDVSTAVAWYQQKPGKAPKLLIYSASFLYSGVPSRFSGSGSGTDFTLTISSLQPEDFATYYCQQGYGRPFTFGQGTKVEIK",,,,,,,Kd (human VEGF (hVEGF) [4]): 2.09 nM; koff (human VEGF (hVEGF) [4]): 0.000407 s⁻¹; kon (human VEGF (hVEGF) [4]): 194000 M⁻¹ s⁻¹
"G6.31 LC-F83A, LC-N94A, LC-T22D (Fab, name in Kabat numbering, V domains shown, Fab) VH: EVQLVESGGGLVQPGGSLRLSCAASGFTISDYWIHWVRQAPGKGLEWVAGITPAGGYTYYADSVKGRFTISADTSKNTAYLQMNSLRAEDTAVYYCARFVFFLPYAMDYWGQGTLVTVSS VL: DIQMTQSPSSLSASVGDRVTIDCRASQDVSTAVAWYQQKPGKAPKLLIYSASFLYSGVPSRFSGSGSGTDFTLTISSLQPEDAATYYCQQGYGAPFTFGQGTKVEIK",,,,,,,Kd (human VEGF (hVEGF) [1]): 0.558 nM; koff (human VEGF (hVEGF) [1]): 0.000744 s⁻¹; kon (human VEGF (hVEGF) [1]): 1.33e+06 M⁻¹ s⁻¹
"G6.31 Y58R.N94A.F83A (Fab, name in Kabat numbering, V domains shown, Fab) VH: EVQLVESGGGLVQPGGSLRLSCAASGFTISDYWIHWVRQAPGKGLEWVAGITPAGGYTRYADSVKGRFTISADTSKNTAYLQMNSLRAEDTAVYYCARFVFFLPYAMDYWGQGTLVTVSS VL: DIQMTQSPSSLSASVGDRVTITCRASQDVSTAVAWYQQKPGKAPKLLIYSASFLYSGVPSRFSGSGSGTDFTLTISSLQPEDAATYYCQQGYGAPFTFGQGTKVEIK",,,,,,,Fold improved (relative to WT) (human VEGF (hVEGF) [6]): 3.9 fold; Kd (human VEGF (hVEGF) [6]): 0.135 nM; koff (human VEGF (hVEGF) [6]): 0.000301 s⁻¹; kon (human VEGF (hVEGF) [6]): 2.22e+06 M⁻¹ s⁻¹

# The next lines start with results.
Kd (human VEGF (hVEGF) [2]) [nM],koff (human VEGF (hVEGF) [2]) [s⁻¹],kon (human VEGF (hVEGF) [2]) [M⁻¹ s⁻¹],Kd (human VEGF (hVEGF) [3]) [nM],koff (human VEGF (hVEGF) [3]) [s⁻¹],kon (human VEGF (hVEGF) [3]) [M⁻¹ s⁻¹],Binder,other results
0.299,0.000608,2.03e+06,0.299,0.000608,2.03e+06,"HCLC4 (Fab, V domains shown, Fab) VH: EEQLVEEGGGLVQPGESLELSCAASGFEISDYWIHWVRQEPGEGLEWVAGITPAGGYEYYADSVEGRFTISADTSENTAYLQMNELRAEDTAVYYCARFVFFLPYAMDYWGQGELVTVSS VL: DIQMTQSPSSLSASVGDEVTITCRASQDVSTAVAWYQQKPGKAPKLLIYSASFLYSGVPSRFSGSGSGTDFTLTISSLQPEDAATYYCQQGYGAPFTFGQGTKVEIK",
0.442,0.000607,1.37e+06,0.442,0.000607,1.37e+06,"HCLC1 (Fab, V domains shown, Fab) VH: EEQLVEEGGGLVQPGESLELSCAASGFEISDYWIHWVRQEPGEGLEWVAGITPAGGYEYYADSVEGRFTISADTSENTAYLQMNELRAEDTAVYYCARFVFFLPYAMDYWGQGELVTVSS VL: DIQMTQSPESLSASVGDEVTITCRASQDVSTAVAWYQQKPGKAPKLLIYSASFLYSGVPSRFSGSGSGTDFTLTISSLQPEDAATYYCQQGYGAPFTFGQGTKVEIK",
0.062,4.41e-05,707000,0.0624,4.41e-05,707000,"R19HCLC5 (Fab, V domains shown, Fab) VH: EEQLVEEGGGLVQPGESLRLSCAASGFEISDYWIHWVRQEPGEGLEWVAGITPAGGYEYYADSVEGRFTISADTSENTAYLQMNELRAEDTAVYYCARFVFFLPYAMDYWGQGELVTVSS VL: DIQMTQSPSSLSASVGDRVTITCRASQDVSTAVAWYQQKPGKAPKLLIYSASFLYSGVPSRFSGSGSGTDFTLTISSLQPEDAATYYCQQGYGAPFTFGQGTKVEIK",
0.169,4.79e-05,284000,0.169,4.79e-05,284000,"R19HCLC4 (Fab, V domains shown, Fab) VH: EEQLVEEGGGLVQPGESLRLSCAASGFEISDYWIHWVRQEPGEGLEWVAGITPAGGYEYYADSVEGRFTISADTSENTAYLQMNELRAEDTAVYYCARFVFFLPYAMDYWGQGELVTVSS VL: DIQMTQSPSSLSASVGDEVTITCRASQDVSTAVAWYQQKPGKAPKLLIYSASFLYSGVPSRFSGSGSGTDFTLTISSLQPEDAATYYCQQGYGAPFTFGQGTKVEIK",
0.33,0.000608,1.84e+06,0.33,0.000608,1.84e+06,"HCLC3 (Fab, V domains shown, Fab) VH: EEQLVEEGGGLVQPGESLELSCAASGFEISDYWIHWVRQEPGEGLEWVAGITPAGGYEYYADSVEGRFTISADTSENTAYLQMNELRAEDTAVYYCARFVFFLPYAMDYWGQGELVTVSS VL: DIQMTQSPESLSASVGDEVTITCRASQDVSTAVAWYQQKPGEAPKLLIYSASFLYSGVPSRFSGSGSGTDFTLTISSLQPEDAATYYCQQGYGAPFTFGQGTKVEIK",
0.316,0.000573,1.81e+06,0.316,0.000573,1.81e+06,"HCLC5 (Fab, V domains shown, Fab) VH: EEQLVEEGGGLVQPGESLELSCAASGFEISDYWIHWVRQEPGEGLEWVAGITPAGGYEYYADSVEGRFTISADTSENTAYLQMNELRAEDTAVYYCARFVFFLPYAMDYWGQGELVTVSS VL: DIQMTQSPSSLSASVGDRVTITCRASQDVSTAVAWYQQKPGKAPKLLIYSASFLYSGVPSRFSGSGSGTDFTLTISSLQPEDAATYYCQQGYGAPFTFGQGTKVEIK",
